The series deals with PTB RRM1 (UniProt P26599 41-163). Put plainly: ITC.

One molecule from publication PMC3931528 can be followed below.

Usually Kd stands for the equilibrium constant for the complex coming apart. Low values mean tighter binding, high ones weaker binding.

PTB RRM1, sequence (P26599 41-163): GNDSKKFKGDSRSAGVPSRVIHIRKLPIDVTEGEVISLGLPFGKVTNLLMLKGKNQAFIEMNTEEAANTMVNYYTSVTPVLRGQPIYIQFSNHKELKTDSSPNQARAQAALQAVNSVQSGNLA

B1: CU 5-mer RNA (ssRNA)
RNA: UCUCU
B1 had a dissociation constant (Kd) of 24.7 µM. This counts as double-digit micromolar.
